{"source": "patent US5821227A", "about": "“Modulators of cytokines of the tgf β superfamily” (Mount Sinai Hospital Corporation, priority 1995, dated 1998)", "key": {"TGF-β1 [1]": {"biological_target": "T1, TGF-β1 (Homo sapiens, UniProt P01137)", "T1 construct": "purchased Collaborative Research (Bedford, Mass.)", "T1 sequence (P01137 279-390 limits assumed)": "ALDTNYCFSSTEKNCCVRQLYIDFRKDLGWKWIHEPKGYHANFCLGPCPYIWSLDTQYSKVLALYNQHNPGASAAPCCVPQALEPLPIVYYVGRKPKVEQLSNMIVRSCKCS", "assay": "BIAcore surface plasmon resonance binding to immobilized TGF-β1", "settings": "for binding to immobilized TGF-β1 (in words): BIAcore sensorgram", "experimental": "(§1) In this system, a purified protein serving as the ligand is covalently coupled to a carboxymethylated dextran surface, and binding molecules (ie. the analyte) are passed in a fluid phase across the surface. Binding of the analyte to ligand causes a change in reflected light which is directly proportional to mass bound, and is measured in arbitrary response units (R.U.). Analyte-ligand binding is observed as both increasing response with time during the injection of analyte, and the difference in the position of the baseline before and after injection.\n(§2) Schuster, R. V. Swanson, L. A. Alex, R. B. Bourret, M. I. Simon, Nature 365, 343 (1993). 1000 R.U. equals approximately 1 ng/mm^2. The running buffer was 20 mM Hepes (pH7.2), 150 mM NaCl and the flow rate for all sensorgrams was 3 μl/min. Injection volumes were 36 μl for FIG. 2, 4 and 5 and 45 μl for FIG. 3. […] Protein concentrations in each experiment were (FIGS. 2 and 3), 2, 5, 10, 20, 30, 40 μM; (FIG. 4), 0.21, 0.31, 0.41, 0.62, 0.82, 1.24 μM; (FIG. 5), 0.22, 0.29, 0.44, 0.59, 0.88 μM. R.U. for the immobilized cytokine in each experiment was 2850 R.U. for FIGS. 2 and 3; 7450 R.U. for FIG. 4, and 5300 R.U., for FIG. 5 respectively.\n(§3) Data was analyzed using the BIA-evaluation software (Pharmacia Biosensor). The association rate constant, kass, was calculated by first plotting the change in response with time versus response (ie. dR/dT vs R). When the slope of the line from this graph is plotted versus analyte concentration (i.e d(dR/dT)/dR vs C), kass is obtained from the slope of the line. The dissociation rate constant, kdiss, is obtained during the decrease in response with time after analyte injection is discontinued. Specifically, kdiss was obtained from the slope of the line in a plot of ln(Rt1 /Rtn) vs time. The affinity constants were calculated from KD =kdiss /kass. Variance for kass is standard error of the linear regression plot, and for kdiss values are the mean±range of 3 or more independent injections."}, "BMP-6": {"biological_target": "T2, BMP-6 (Homo sapiens, UniProt P22004)", "T2 sequence (P22004 375-513)": "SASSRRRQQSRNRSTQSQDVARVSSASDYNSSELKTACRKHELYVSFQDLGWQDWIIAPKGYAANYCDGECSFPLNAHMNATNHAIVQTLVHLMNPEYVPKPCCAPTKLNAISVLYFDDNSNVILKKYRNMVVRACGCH", "assay": "BIAcore surface plasmon resonance binding to immobilized BMP-6", "settings": "ligand BMP-6", "experimental": "as §1, §2, §3"}, "BMP-4": {"biological_target": "T3, BMP-4 (Homo sapiens, UniProt P12644)", "T3 sequence (P12644 293-408)": "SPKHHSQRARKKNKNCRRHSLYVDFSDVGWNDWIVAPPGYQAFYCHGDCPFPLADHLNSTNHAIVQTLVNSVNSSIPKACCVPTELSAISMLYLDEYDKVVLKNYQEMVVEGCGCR", "assay": "BIAcore surface plasmon resonance binding to immobilized BMP-4", "settings": "ligand BMP-4; for Kd: KD = kdiss/kass", "experimental": "as §1, §2, §3"}, "TGF-β2": {"biological_target": "T4, TGF-β2 (Homo sapiens, UniProt P61812)", "T4 sequence (P61812 303-414 limits assumed)": "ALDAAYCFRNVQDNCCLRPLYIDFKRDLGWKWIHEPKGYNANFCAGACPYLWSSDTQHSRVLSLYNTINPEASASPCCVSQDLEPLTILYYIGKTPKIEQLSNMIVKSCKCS", "assay": "BIAcore surface plasmon resonance binding to TGF-β2", "settings": "ligand TGF-β2; for Kd: KD = kdiss/kass; for kass: ± standard error of linear regression", "experimental": "as §1, §2, §3"}, "BMP-2": {"biological_target": "T5, BMP-2 (Homo sapiens, UniProt P12643)", "T5 construct": "purchased Genetics Institute, Cambridge, Mass; (a gift, not bought)", "T5 sequence (P12643 283-396)": "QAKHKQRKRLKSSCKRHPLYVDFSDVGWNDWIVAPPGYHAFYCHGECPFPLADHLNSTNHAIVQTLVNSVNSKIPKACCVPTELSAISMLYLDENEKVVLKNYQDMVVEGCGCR", "assay": "BIAcore surface plasmon resonance binding to immobilized BMP-2", "settings": "for Kd: ligand BMP-2, KD = kdiss/kass; for kdiss / kass: ligand BMP-2 immobilized; for kass: ± standard error of linear regression", "experimental": "as §1, §2, §3"}, "TGF-β1 [2]": {"biological_target": "T1, TGF-β1", "assay": "Mv1Lu growth inhibition assay: neutralization of the antiproliferative activity of TGF-β1 (3H-thymidine incorporation)", "format": "cell-based", "settings": "Mv1Lu cells; for IC50 / Maximal effect, percent neutralization: TGF-β1 12 pM; for IC50: 3H-thymidine incorporation, read-out: half-maximal inhibition (IC50) of the anti-proliferative activity of TGF-β1; for Maximal effect, percent neutralization: 0% = TGF-β1 alone, 100% = no additions", "experimental": "Mv1Lu cells were seeded at 20,000 cells/well in a 96 well plate containing 0.2% FCS in α-MEM and incubated with the indicated concentrations of proteins for 18 hr. […] Before use, bovine thyroglobulin was spun twice in a centricon (M.W. cutoff of 10,000 Da) micro-concentrator (Amicon, Beverly, Mass.) to remove any excess Iodine and T3/T4 thyroid hormones."}, "[3]": {"settings": "ligand TGF-β1, KD = kdiss/kass, read-out: KD"}, "[4]": {"settings": "± standard error of linear regression"}, "[5]": {"settings": "ligand TGF-β1 immobilized, ± standard error of linear regression"}}, "note": "Where two headings read alike, the source gives them in different places.", "data": [{"compound": "CC[C@H](C)[C@H](NC(=O)[C@H](CC(N)=O)NC(=O)[C@H](CCC(=O)O)NC(=O)[C@H](CC(=O)O)NC(=O)[C@H](CC(N)=O)NC(=O)[C@H](CCCCN)NC(=O)[C@H](CCCNC(=N)N)NC(=O)[C@H](Cc1c[nH]c2ccccc12)NC(=O)[C@@H](NC(=O)[C@H](C)NC(=O)[C@@H](NC(=O)[C@@H](N)CSCC(N)=O)C(C)C)C(C)C)C(=O)N[C@H](C(=O)N[C@@H](CC(C)C)C(=O)N[C@@H](CCC(=O)O)C(=O)N[C@H](C(=O)N[C@H](C(=O)N[C@@H](CSCC(N)=O)C(=O)N[C@@H](Cc1c[nH]cn1)C(=O)N[C@@H](CC(=O)O)C(=O)O)C(C)C)[C@@H](C)O)[C@@H](C)O", "note": "[TRH1b (TβRII) (reduced & alkylated)]", "values": [{"measurement": "Kd", "setting": "TGF-β1 [1]; [3]", "value": "> 10", "unit": "µM"}]}, {"compound": "CC[C@H](C)[C@@H]1NC(=O)[C@H](CC(N)=O)NC(=O)[C@H](CCC(=O)O)NC(=O)[C@H](CC(=O)O)NC(=O)[C@H](CC(N)=O)NC(=O)[C@H](CCCCN)NC(=O)[C@H](CCCNC(=N)N)NC(=O)[C@H](Cc2c[nH]c3ccccc23)NC(=O)[C@H](C(C)C)NC(=O)[C@H](C)NC(=O)[C@H](C(C)C)NC(=O)[C@@H](N)CSSC[C@@H](C(=O)N[C@@H](Cc2c[nH]cn2)C(=O)N[C@@H](CC(=O)O)C(=O)O)NC(=O)[C@H](C(C)C)NC(=O)[C@H]([C@@H](C)O)NC(=O)[C@H](CCC(=O)O)NC(=O)[C@H](CC(C)C)NC(=O)[C@H]([C@@H](C)O)NC1=O", "note": "[TRH1b (TβRII)]", "values": [{"measurement": "koff", "setting": "TGF-β1 [1]; ligand TGF-β1 immobilized, read-out: kdiss (dissociation rate)", "value": 0.0019, "unit": "s⁻¹"}, {"measurement": "kon", "setting": "TGF-β1 [1]; ligand TGF-β1 immobilized, ± standard error of linear regression, read-out: kass (association rate)", "value": 3700, "unit": "M⁻¹ s⁻¹"}]}, {"compound": "Fetuin: Bovine fetuin, glycoprotein from fetal calf serum (ammonium sulfate fractionation, gel filtration), purchased from Sigma", "values": [{"measurement": "kdiss", "setting": "BMP-6", "value": 0.0025, "unit": "s⁻¹"}, {"measurement": "Kd", "setting": "BMP-6; KD = kdiss/kass", "value": 0.86, "unit": "µM"}, {"measurement": "kass", "setting": "BMP-6; [4]", "value": "2900 ± 500", "unit": "M⁻¹ s⁻¹"}, {"measurement": "kdiss", "setting": "BMP-4", "value": 0.00058, "unit": "s⁻¹"}, {"measurement": "Kd", "setting": "BMP-4", "value": 0.14, "unit": "µM"}, {"measurement": "kdiss", "setting": "TGF-β2", "value": 0.0032, "unit": "s⁻¹"}, {"measurement": "Kd", "setting": "TGF-β2", "value": 5.8, "unit": "µM"}, {"measurement": "kass", "setting": "TGF-β2", "value": "550 ± 120", "unit": "M⁻¹ s⁻¹"}, {"measurement": "Kd", "setting": "BMP-2", "value": 0.036, "unit": "µM"}, {"measurement": "kdiss", "setting": "BMP-2", "value": "6.2e-05", "unit": "s⁻¹"}, {"measurement": "kdiss", "setting": "BMP-2; listed as fetuin", "value": "6.2e-05", "unit": "s⁻¹"}, {"measurement": "kass", "setting": "BMP-2", "value": "1700 ± 300", "unit": "M⁻¹ s⁻¹"}, {"measurement": "kass", "setting": "BMP-2; listed as fetuin", "value": 1700, "unit": "M⁻¹ s⁻¹"}, {"measurement": "Kd", "setting": "TGF-β1 [1]; ligand TGF-β1, steady-state, read-out: KD, Scatchard type analysis for steady-state binding", "value": 4.6, "unit": "µM"}, {"measurement": "kdiss (dissociation rate)", "setting": "TGF-β1 [1]; ligand TGF-β1 immobilized", "value": 0.0016, "unit": "s⁻¹"}, {"measurement": "kass (association rate)", "setting": "TGF-β1 [1]; [5]", "value": "670 ± 400", "unit": "M⁻¹ s⁻¹"}, {"measurement": "IC50", "setting": "TGF-β1 [2]", "value": 4.2, "unit": "µM"}, {"measurement": "Maximal effect, percent neutralization", "setting": "TGF-β1 [2]", "value": "approximately 150%"}]}, {"compound": "Thyroglobulin: Bovine thyroglobulin purchased from Sigma, containing the TRH1 domain", "values": [{"measurement": "kdiss", "setting": "BMP-4", "value": 0.0011, "unit": "s⁻¹"}, {"measurement": "Kd", "setting": "BMP-4", "value": 0.02, "unit": "µM"}, {"measurement": "kass", "setting": "BMP-4; [4]", "value": "54000 ± 7000", "unit": "M⁻¹ s⁻¹"}, {"measurement": "kdiss", "setting": "TGF-β2", "value": 0.005, "unit": "s⁻¹"}, {"measurement": "Kd", "setting": "TGF-β2", "value": 3.8, "unit": "µM"}, {"measurement": "kass", "setting": "TGF-β2", "value": "1300 ± 600", "unit": "M⁻¹ s⁻¹"}, {"measurement": "Kd", "setting": "BMP-2", "value": 0.0031, "unit": "µM"}, {"measurement": "kdiss", "setting": "BMP-2", "value": 0.0001, "unit": "s⁻¹"}, {"measurement": "kass", "setting": "BMP-2", "value": "32000 ± 2000", "unit": "M⁻¹ s⁻¹"}, {"measurement": "Kd", "setting": "TGF-β1 [1]; [3]", "value": 0.68, "unit": "µM"}, {"measurement": "kdiss (dissociation rate)", "setting": "TGF-β1 [1]; ligand TGF-β1 immobilized", "value": 0.0019, "unit": "s⁻¹"}, {"measurement": "kass (association rate)", "setting": "TGF-β1 [1]; [5]", "value": "2800 ± 1000", "unit": "M⁻¹ s⁻¹"}, {"measurement": "IC50 for inhibition of TGF-β1 activity, fold lower than for fetuin", "setting": "TGF-β1 [2]", "value": 20, "unit": "fold"}, {"measurement": "IC50", "setting": "TGF-β1 [2]", "value": 0.22, "unit": "µM"}, {"measurement": "Maximal effect, percent neutralization", "setting": "TGF-β1 [2]", "value": "approximately 150%"}]}, {"compound": "human transferrin: Non-binding control passed over immobilized TGF-β1 [reference compound]", "values": [{"measurement": "binding to immobilized TGF-β1 (in words)", "setting": "TGF-β1 [1]", "value": "non-binding"}]}, {"compound": "reduced and alkylated fetuin: Fetuin, reduced and alkylated, compared to native fetuin", "values": [{"measurement": "binding to immobilized BMP-2 (in words)", "setting": "BMP-2; BIAcore sensorgram", "value": "diminished binding"}, {"measurement": "binding to immobilized TGF-β1 (in words)", "setting": "TGF-β1 [1]", "value": "diminished binding"}]}]}
